The series can be described thus: label from the status in PepcDB records.
Turning to “SCGDKMNKNTGALEFDSIQVNETAHLFGDTAKPACNLTINFAYPVKSTDNKLKDSLNSYFIAACFGEGYIGEKPAQVVKEYTEHYVKEYRTDLEPMYAEDEKNKESEGSIGAWYSYYKGIESHVQLYYKNLLVYRINYNEYTGGAHGIYMTTFLNMDLINLRPLKLDDIFTGDYKEALTDLLWNQLMADKKVTTHEALEDMGYGSTGDIAPTENFYLDKDGITFYYNVYDITPYAMGPVEIKIPYEMMEHMLGSNPIIGEMKSK”, the protein production entry is “not failed”.
Next, “MAQKDRNTRIAQKAFEMVDKVYGKSPNLTTKPYDPKDESPSRFTQSAYKYGGPKIYTVREATSTYSYGRAIYMYAPESTIKEPVVSHPTEHIQYYGGTRPFVANPNRFERPKGRVINCDEAVQLYGGVLIKEFRK”: “failed”; “RGRGGTGGARRLSCGARRRAARGTSPGRRLSTAWSQPQPPPEEYAGADDVSQSPVAEEPSWVPSPRPPVPHESPEPPSGRSLVQRDIQAFLNQCGASPGEARHWLTQFQTCHHSADKPFAVIEVDEEVLKCQQGVSSLAFALAFLQRMDMKPLVVLGLPAPTAPSGCLSFWEAKAQLAKSCKVLVDALRHNAAAAVPFFGGGSVLRAAEPAPHASYGGIVSVETDLLQWCLESGSIPILCPIGETAARRSVLLDSLEVTASLAKALRPTKIIFLNNTGGLRDSSHKVLSNVNLPADLDLVCNAEWVSTKERQQMRLIVDVLSRLPHHSSAVITAASTLLTELFSNKGSGTLFKNAERMLRVRSLDKLDQGRLVDLVNASFGKKLRDDYLASLRPRLHSIYVSEGYNAAAILTMEPVLGGTPYLDKFVVSSSRQGQGSGQMLWECLRRDLQTLFWRSRVTNPINPWYFKHSDGSFSNKQWIFFWFGLADIRDSYELVNHAKGLPDSFHKPASDPGS”: “failed”.
Next, “MIDDKYFDVFNDKSTLQAIAVPERLERRTTVTDRIDRNGTRHEAVVPVGAAYTLLPKQFCKPAAKNYLFELDDFQKISVCSLERDESVLVSAHTSSGKTVVAEYAIAMSLRSNQRVVYTSPIKALSNQKYRELLSEFSDVGLMTGDVTINPTASCLVMTTEILRNMLYRGGEVVREIHWIIFDEIHYMRDKERGVVWEETIILLPKHVRMVFLSATIPNALEFAEWISHIQSQVVHVVYTEKRVTPLVHYFRSNKLYKIKDAKFHKSNFLSAMRSIRKRNVGPREVGEAIGDASLPVVVFSFKRKDCERFAMKLDGRYLTDEEARTVQTIFTNAIMSLRKEDREIPIIQNILPLLMRGIGIHHSGLLPIIKEVVEILFQEGLLKVLFATETFSIGLNMPAKSVVFTALKKFDGEAMRLVSSGEYIQMSGRAGRRGIDSMGIVISIISEPITYKEASRLFSASSDNLVSAFRLTYNMLLNLMRVEGLDPLYLISRSFHHFQSYKKALAEEETLHLMYRRLEDIEPNETACLYRKREEKKVERGKRLVEAFGKYLKKGRVVDLFIPRNGPSITIRNAIVSKAREKVQCMVGTEEGVYMCSFPLHYIDCVYDIRVKLDVRVFTKSFEKIAVRDELDEEIEEIEGKILSMDPEWSFDFCVLCGKSSVGCLVSCSRELIDSEAVIVQMPENTKRYGESLEAARYPSTEMKSNMDGARAFFVNETLRQRYLEKLLELNSLKEIYHMRECKKMIEVLKKLEYCDDTTVLIKGRMACEISSGDELVLTEMIFNGDFAGIPVEHFVPLLSCIVFEEWDSDSFVLSDENKLYYRLLSDSVEKVCKVLKSCGIEIDPAAYLKRFSYELMDVVRMWVCGCTFISICSKTSIFEGSIIRTFKRLEELLRQLSSAARVIGNTELENMFALGIVKIKRDIVFANSLYI”: “failed”.
Turning to “MAIEPDLGLDSTEPKLFSARLKPHRALSHNGFLILIGLVGTASFAAGLAFWLIGAWPVFGFFGLDVLALAFAFKVSFARARASEEISMTCSELRVRRTSARGEVAEWVLNPLWVRLEKIVHHDAGIERLYLVSSGRRLAIANFLGAEEKANFAKALMAALDAARRGPLYPA”, the protein production entry was “failed”.
For “MRLTKLAATIGCVTLSGLALVACSSDSTAGTDAVAVGGTFQFHSPDGKMEIFYDEADRQQLPDIGGDSLMEEGTQINLSDFENQVVILNAWGQWCAPCRSESDDLQIIHEELQAAGNGDTPGGTVLGINVRDYSRDIAQDFVTDNGLDYPSIYDPPFMTAASLGGVPASVIPTTIVLDKQHRPAAVFLREVTSKDVLDVALPLVDEA” the value was “not failed”.
For “MNEKSFNYDFSVIMPIYNVELYLTEAIESIINQTIGFENIQLILVNDDSPDKSEIICKEYAQKYPNNIVYAKKQNGGVSSARNYGLKYAEGRYIQFLDPDDLVSEGTFENVLNFFDEHKNEIDIVAIPIFFAEGRTGEHNLNNKFSSTRILDVEKEPHHILTHCCSTFIKKDALKNIRFDENCKIGEDAKLVNLIISQKKKYGLVKEAKYHYRVREDGSSAMQTAKANKNWFNHSLITFSKNLIDIIKNHEQKIPLFLQYMVMHDLKWKLLIKDISETPLDENEYSEFLTLIREVLSYIDDDVIIETKSVSHFYLYHALKIKHGENYSRYVYERETEQDYYLYREGKIVSKLSDQTLTIEILEENEDSIHIEGFWSSLFNSKGFKFYAKIGETKIKAKNIKRQHNDYISLGEVIKKYPGFSIDIPKGHLADNHHIEFFITKGKKRKLTKLRFFKYSGLSNDLYNTYVAKKDYIFYYNYKKLMFKKNNFKNRFIKEFRFLKSLHKSGEKSKKRKSAIKKALMARMVHHVFTIFNRKPVWLFIDRQDKADDNAEHLFKYAINKNDGVKKYFIIKKDSKDYDRIKKYGKVIPYRSFRHKILTLSSSKVISTHADIWVVNPFFNMEIYFRDLFNFEFIFLQHGITMADHSEWLNKYNKNIKLLVTSAKPEYRSIVKGNYNYKKENILLGGFPRYDNLKKSEGEKQLLIMPTWRKDIVLPKDQAKGVRPYNPKFKDSEYFSRYNALINDERLIEFAKKNNYKITFFPHPDIQQQIVDFEKHDYVEFADYNSSYQMLFNSSNIMITDFSSVAFDFAYEKKPVIYYQYEKSYHFKLDYYDYKKMGFGDVLENHNSLVDKVIYYMKNNSRMEDKYRKRVDNFFAYTDKNNRNRIYNAILELDNNKVAK” the value was “failed”; for “TIDRDIQWAAQNAITEQVEKSGADRGYVMVQDTRTGEILAMANSPGFDPNDLSKASSAALGNAALQDAYEPGSTAKVMSMAAVLEENVATPETHVVVPNRLHRGDRLFQDDIDHPTWNLTLNGVLAKSSNIGTILAAGQLGKTQKQANEVLYSYMRKFGIGLPTGLGFPGETSGILAPAAKWSTSQQYTIPFGQGVSINAMQAASVYSTIANGGVRVEPTLVRGTKGPDGRFTPAPRPKKTRVVSEKTAKTLAQMLESVVDDEEGTGAKARIPGYRVAGKTGTANRVDPATGKYHGYTSSFAGFAPADNPRITVYCAIQNATQGSYFGGQICGPIYKQVMEFALKTLQVPPTGAGAAHLPVTFTP”, “failed”.
Turning to “MPFETPDLLGPSEPVPDRLSANEFLLRPLTPTDAEIDYEAVTESGDRLHGIFGPDDEWPTGLTPEQNRIDVCWHYREHQRRDAFTYGVFDPAETTELGCLYVQPTRIEGYDAAVYYWTAAAAVERGLADEIETACREWVATEWPFGRVAYPGRDVSWQAVPAAGTEGD”, the protein production result is reported as “failed”.
Next, “MVTALARPEQTMQELAFRTLLYRYFFFDWLFKDASRGDLRERSAAWRFNQAHAHWLLTYLRRWVWCGALFCLLGGSIELMLSAPVLSAFFYVPGVLSVPINVVICVLWVGLKTLPGPM”: “failed”; “MPDKPMQYVISRLIDNRTRTRILAPVSALTVKAAREKATGQLQAWREEHTQPSMSASPRFDVFVEQTWKPMIFEHWKPSTKRSVLPALNRRLLAHFGRYPLHMINHKMVQAWFDEISKTRKGAANRNLDTLQSVFKLALRQGHCLTNPCIGIRQNKRRVLNRFLSVAEMQRLSVALDECEAVGGSIAQCADVLRLLLLTGCRLSEITFLKGEYVRGNELHLPDSKTGAKVLYIGQAAVDILSRYHCKANTELFPMKQGASTSLVQSLWLRLRKQIGVEDVRLHDLRHTFASYAVMDGCSIPMVASLLGHKKVTMTLRYTHVGDDSVEQASEVIGAVFKGIFTQPEPPKPLIPRTNETPMPAVKVKQKRLPERKPTAKPKPKAVKKVKQVKPLQKLPTLTKEELRAIQRFRDSELFDRVKIG”: “failed”.
Next, “MGHHHHHHSHMNLERLRKRVRQYLDQQQYQSALFWADKVASLSREEPQDIYWLAQCLYLTAQYHRAAHALRSRKLDKLYEACRYLAARCHYAAKEHQQALDVLDMEEPINKRLFEKYLKDESGFKDPSSDW”: “failed”.

The values are drawn from a protein production outcome set (Wang et al. 2014).
